Measurements as given in US9187762B2, “Compositions and methods comprising sequences having hydroxyphenylpyruvate dioxygenase (HPPD) activity” (PIONEER HI-BRED INTERNATIONAL, INC., priority 2010, dated 2015).

Columns and labels:
[1] = test system: maize HPPD; assay: ON rate ratio, OFF rate ratio and insensitivity parameter with herbicidal HPPD inhibitors; type: biochemical
Source text: To devise a parameter for detecting changes in inhibitor binding affinity, KD, one can utilize the relationship between KD and the rates of binding and release of inhibitor to and from the enzyme. [formula] Higher KD (reduced affinity or increased insensitivity) can be attained with a numerically smaller ON rate, a larger OFF rate or both. […] The ratio of the reaction rate with inhibitor to that without inhibitor during the 70 to 90 second interval of the reaction was termed the “ON rate ratio”. […] Incubations with the same concentrations of enzyme but no mesotrione were done in parallel. After 1 hr at room temperature, 5 to 10 ul of the enzyme-inhibitor complex was dispensed into the wells of the assay plate. Reactions were started with the addition of 290 to 295 ul of 25 mM Hepes, pH 7, 2 mM ascorbate, 10 uM FeSO4, 100 uM HPP and 50 nM HGD. The reactions were monitored at 320 nm for 12 min. Reaction velocity accelerates as inhibitor is released from the enzyme until a steady state is reached, during which the reaction velocity is constant. The ratio of the steady state rate in mixtures containing mesotrione (or other herbicidal inhibitor) to the initial velocity of mixtures lacking inhibitor is termed the “OFF rate ratio”. Another parameter to record is the time span required for the reactions with inhibitor to reach the steady state. […] It is not certain that the steady state attained in the OFF rate reactions actually represents an equilibrium where OFF rates are now equal to ON rates. Because substrate and inhibitors bind in the same site, the high concentration of substrate present may competitively trap the inhibitor and prevent it from binding again. To be sure that improvement in ON rates is being taken into account, the ON and OFF rate ratios were multiplied together and the product is termed the “insensitivity parameter”. […] The variants in Table 9 were grouped according to the parameter in which they are improved compared to wild type. The sequence positions are numbered according to the wild-type maize amino acid sequence of SEQ ID 1. Some substitutions are effective in multiple contexts, as discussed in the next section.

[2] = test system: maize HPPD; assay: KD by isothermal titration calorimetry; type: binding
Protocol: To verify that the insensitivity parameter reflects improvement (elevation) in KD, KD was directly measured with isothermal titration calorimetry. […] Enzymes were transferred to a matrix of 25 mM Hepes, pH 7, 2 mM ascorbate and 10 uM FeSO4 by gel-filtration chromatography. Mesotrione or tembotrione were diluted into the same buffer. Enzyme concentrations in the cell ranged from 100 to 300 uM. Inhibitor concentrations in the syringe were always 8 times that of the cell concentration.

[3] = test system: soybean plants; assay: Herbicide spray tests of transgenic HPPD soy plants (T1/T2) with multiple HPPD-inhibitor herbicides, visual injury; type: in vivo; conditions: T1 plants, V1 stage; mesotrione, tembotrione, topramezone, isoxaflutole
Protocol: T1 plants were evaluated for zygosity. Homozygous single-locus transgenic plants and their corresponding null segregants were identified and T2 true breeding seed was obtained from each. Plants were grown to the V1 to V2 growth stage and then sprayed with the commercial formulation of mesotrione, tembotrione, topramezone, and isoxaflutole. All treatments were applied with nonionic surfactant and ammonium sulfate in a spray volume of 374 L/ha. Multiple rates of each herbicide were applied so a response range could be used to compare the relative tolerance of the different herbicides as well as the relative tolerance of homozygous nulls and positives for each event. The herbicide response for individual treated plants was evaluated by comparing to untreated plants of similar genetic background. Herbicide response ratings were eight days after treatment. Visual injury was on a scale of 0 to 100% injury (0=no effect to 100=dead plant).
T1 soybean plants expressing D0223903 (SEQ ID NO: 3) driven by a synthetic promoter (as described in U.S. Pat. No. 6,072,050) were evaluated with qPCR for the presence of the transgene and null and positive segregants selected. Plants were sprayed at the V1 growth stage with the commercial formulations of mesotrione, tembotrione, topramezone, and isoxaflutole. Two rates of each herbicide were applied foliarly with nonionic surfactant and ammonium sulfate in a spray volume of 374 L/ha. The herbicide response for individual plants was determined by comparing to untreated plants of similar genetic background. Visual injury was on a scale of 0 to 100% injury (0=no effect to 100=dead plant).

- Fold vs wt (KD) ([2]; Mesotrione, sites modeled: One): 3.6
- Fold vs wt (KD) ([2]; Mesotrione, sites modeled: Two): 4.9
- Fold vs wt (KD) ([2]; Tembotrione, sites modeled: Two): 7.3
B1: D0223903: shuffled maize HPPD variant, SEQ ID NO: 3; R341C mutation introduced into HPPD D0193494 (protein)
chain: MGPTPTATAAGAAVAAASAAEQAAFRLVGHRNFVRFNPRSDRFHTLAFHHVELWCADAASAAGRFSFALGAPLAARSDLSTGNSAHASLLLRSGSLSFLFTAPYAHGADAATAALPSFSAAAARRFAADHGLAVRAVALRVADAEDAFRASVAAGARPAFGPVDLGRGFRLAEVELYGDVVLRYVSYPDGAAGEPFLPGFEGVASPGAADYGLSRFDHIVGNVPELAPAAAYFAGFTGFHEFAEFTTEDVGTAESGLNSMALANNSENVLLPLNEPVHGTKRRSQIQTFLDHHGGPGVQHIALASDDVLRTLREMQARSAMGGFEFLPPPPSDYYDGVRRCAGDVLTEAQINECQELGVLVDRDDQGVLLQIFTKPVGDRPTFFLEIIQRIGCMEKDEKGQEYQKGGCGGFGKGNFSQLFKSIEDYEKSLEAKQAAAAATAQGS
modifications: HPPD variant
notes: R341C mutation introduced into HPPD D0193494
- Insensitivity parameter (ON rate ratio × OFF rate ratio) relative to that of maize wild-type HPPD ([1]; Isoxaflutole (diketonitrile)): 12.3
- Insensitivity parameter (ON rate ratio × OFF rate ratio) relative to that of maize wild-type HPPD ([1]; Sulcotrione): 3.3
- Insensitivity parameter (ON rate ratio × OFF rate ratio) relative to that of maize wild-type HPPD ([1]; Topramezone): 12.7
- Triple product (ON rate ratio × OFF rate ratio × kcat), relative to that of maize wild-type HPPD ([1]; inhibitor Isoxaflutole (diketonitrile)): 7.7
- Triple product (ON rate ratio × OFF rate ratio × kcat), relative to that of maize wild-type HPPD ([1]; inhibitor Mesotrione): 3.7
- Triple product (ON rate ratio × OFF rate ratio × kcat), relative to that of maize wild-type HPPD ([1]; inhibitor Sulcotrione): 2.1
- Triple product (ON rate ratio × OFF rate ratio × kcat), relative to that of maize wild-type HPPD ([1]; inhibitor Tembotrione): 12.1
- Triple product (ON rate ratio × OFF rate ratio × kcat), relative to that of maize wild-type HPPD ([1]; inhibitor Topramezone): 8.0
- Insensitivity parameter (ON rate ratio × OFF rate ratio) relative to that of maize wild-type HPPD ([1]; mesotrione): 6.0
- Insensitivity parameter (ON rate ratio × OFF rate ratio) relative to that of maize wild-type HPPD ([1]; tembotrione): 19.3
- soybean tolerance to HPPD-inhibitor herbicides [3]: increased soybean tolerance
